We go through two substances from paper PMC4403245.

This assay concerns the target GST-tagged KAHRP fragment K1D (Plasmodium falciparum) (UniProt P06719). As to the kind of experiment: SPR.

What is called Kd is the concentration at which binding is half-saturated. Higher therefore signals lower affinity. Usually koff stands for a measure of how fast the partners let go of each other. Read a high koff as fast dissociation. In general, kon refers to the rate constant with which the complex forms. Higher therefore signals faster complex formation.

Chain of UniProt P06719 (P06719 35-657): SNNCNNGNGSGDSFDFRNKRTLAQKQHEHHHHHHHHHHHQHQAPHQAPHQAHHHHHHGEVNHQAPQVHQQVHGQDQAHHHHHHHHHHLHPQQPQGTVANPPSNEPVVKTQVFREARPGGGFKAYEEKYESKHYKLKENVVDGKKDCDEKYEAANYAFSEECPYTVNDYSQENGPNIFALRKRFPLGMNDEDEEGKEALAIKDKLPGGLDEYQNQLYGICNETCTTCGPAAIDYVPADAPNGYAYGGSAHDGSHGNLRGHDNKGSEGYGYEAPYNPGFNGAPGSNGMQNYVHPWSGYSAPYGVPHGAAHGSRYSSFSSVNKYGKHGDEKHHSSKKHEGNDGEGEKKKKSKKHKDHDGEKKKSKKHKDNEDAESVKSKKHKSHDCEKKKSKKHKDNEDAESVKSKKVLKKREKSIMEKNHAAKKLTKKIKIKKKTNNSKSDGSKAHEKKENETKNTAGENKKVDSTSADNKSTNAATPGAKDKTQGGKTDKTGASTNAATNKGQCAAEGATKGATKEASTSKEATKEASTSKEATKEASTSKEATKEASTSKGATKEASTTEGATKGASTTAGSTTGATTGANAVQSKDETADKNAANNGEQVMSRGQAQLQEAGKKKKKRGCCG

In turn, “MBP-tagged D3 subdomain of the ankyrin R membrane-binding domain (from UniProt P16157 404-601) (domain or fragment)” had a Kd of 46 nM, a koff of 0.00137 s⁻¹ and a kon of 29900 M⁻¹ s⁻¹.

In turn, “MBP-tagged ankyrin R N-terminal 89 kDa membrane binding domain (from UniProt P16157 1-827) (domain or fragment)” registered a Kd of 38 nM, a koff of 0.00161 s⁻¹ and a kon of 42800 M⁻¹ s⁻¹.
